# Test results reported in the supplement of paper PMC10126150.
# ± gives the standard deviation of the averaged measurements.
# Tested on: ATP
# Experiment: switch fluorescence ratio, 500 uM ATP over buffer (Cy3 cluster intensity, sum of 5 cycles each) (fold (ratio)); higher = stronger signal-on switching upon ATP binding; sequences stand for … in TCGTCGGCAGCGTCAGATGTGTATAAGAGACAGTTTTTTTTTTTTTTTTTTTTTTTTT…TC
# Settings: aptamer strand: ATP DNA aptamer (quencher-CACCTGGGGGAGTATTGCGGAGGAAGG + anchor), 100 nM annealed; ATP concentration: 500 uM
# How it was run: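 Clusters with intensities outside 100-1000 RFU were excluded. The remaining Cy3-labelled switching-strand clusters on a modified Illumina MiSeq flow-cell had been annealed to 100 nM quencher-labelled ATP aptamer and imaged in selection buffer, then after 15 min with 500 uM ATP at 22 °C, for five cycles separated by NaOH stripping and re-annealing. The fluorescence ratio, averaged per switch-domain sequence, is each cluster's summed target-cycle Cy3 intensity over its summed buffer-cycle Cy3 intensity.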
# 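Further: ATP exposure 15 min at 22 °C before imaging.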
row,Sequence,switch fluorescence ratio
1,TGGGCTCCGG,1 ± 0.031
2,TGTGACGGGA,1.091 ± 0.0051
3,GGGTCTCATC,1.02 ± 0.065
4,TTCAGGGCTT,0.986 ± 0.036
5,GGGGGCCTGT,1.01 ± 0.035
6,TCTAGGATGG,0.962 ± 0.023
7,TTACGGTCCC,1.19 ± 0.24
8,AATAACGATC,1.037 ± 0.0063
9,GGGTTGTTGG,0.9963 ± 0.0015
10,TTTTTCACGC,1.04 ± 0.019
11,TAAGCAGAGG,1.17 ± 0.13
12,GGATGGGAGG,1.046 ± 0.0092
13,AGTATGGGGA,0.989 ± 0.016
14,GCCCAAAAGA,1.02 ± 0.02
15,TTAGATTTTT,1.002 ± 0.0087
16,CGTTATCGGA,1 ± 0.041
17,CGATGGCGAC,1.016 ± 0.0051
18,AAAGGGGCGC,0.993 ± 0.035
19,TTTGAAGTCA,1 ± 0.022
20,CAGATTGTGT,1 ± 0.039
21,GTGGGTTTTT,1.01 ± 0.032
22,TAGCTACTTC,1.73 ± 0.93
23,GATAAAAGGC,0.997 ± 0.024

row,Sequence,switch fluorescence ratio
1,TGGACACTGC,1.02 ± 0.011
2,AATCTGGGAG,0.996 ± 0.015
3,ATGATGAATG,0.975 ± 0.054
4,GTTGTTGAAT,0.992 ± 0.026
5,TCCAAGAGGG,1.01 ± 0.031
6,CCAATAACGC,1.22 ± 0.074
7,AATAGTCGGC,1 ± 0.042
8,CAAGGTGGAT,1.051 ± 0.009
9,ATTGCAGATC,1.05 ± 0.058
10,CTTGTAAATT,0.983 ± 0.035
11,GTGAGTTTTT,1.02 ± 0.022
12,TAACCTACCG,1.41 ± 0.037
13,TTATGGAGTT,0.987 ± 0.01
14,GTGGCGCTTT,0.976 ± 0.023
15,TAGAGAAGCC,1.04 ± 0.025
16,GACGGAGAGA,1.23 ± 0.029
17,GTTATGTTGT,1.01 ± 0.04
18,ATACCGAAGT,1.17 ± 0.18
19,TTTCGGACGC,1.35 ± 0.33
20,GACGGGGTGG,1.01 ± 0.059
21,TTCCGTTGTG,0.98 ± 0.049
22,ACTCGACCTT,1.21 ± 0.15
23,ATAGACAGCA,1.01 ± 0.025

row,Sequence,switch fluorescence ratio
1,CGGTTTTATT,0.982 ± 0.028
2,TGTTAGATGA,0.976 ± 0.013
3,GACACTTAGG,1.05 ± 0.017
4,AGGGATTGAT,1.01 ± 0.059
5,TGAATTATGT,0.985 ± 0.048
6,TTTTGCAGGA,1.05 ± 0.14
7,CGGATAGTCA,1.042 ± 0.0078
8,ATATAGGATT,0.9893 ± 0.0068
9,GGTTTAGATG,1.02 ± 0.015
10,TCCACCGA,1.04 ± 0.017
11,TCGTTTGGAA,1 ± 0.025
12,TTTATTGGGC,0.988 ± 0.053
13,TTGTCAGACT,0.9801 ± 0.0028
14,TCGGCGGGGA,1.05 ± 0.14
15,GCTGGGGCCC,0.9977 ± 0.005
16,GGGGTTCTCG,1.001 ± 0.0031
17,AATTTTTTTT,1.01 ± 0.043
18,TCCTTTGGTC,0.987 ± 0.022
19,GCGGGAGATA,1.01 ± 0.037
20,TAACGTATGT,0.9929 ± 0.0046
21,CCTGGGGGGA,1.02 ± 0.059
22,AGTTGCGTCG,0.997 ± 0.031
23,GGAAGAGGAG,0.983 ± 0.014

row,Sequence,switch fluorescence ratio
1,AAAGGGAAAA,1 ± 0.028
2,GAGTGATGGC,1.03 ± 0.014
3,CGAGGAGCAT,1.01 ± 0.058
4,ATGATTTCTA,0.986 ± 0.024
5,TAACGCCCTA,1.07 ± 0.019
6,TTCCGGGATC,1.91 ± 0.092
7,TGTGCAAAGG,0.997 ± 0.042
8,GAAAGAGAGT,0.987 ± 0.023
9,GTTTGAAAGT,0.957 ± 0.01
10,CCAGGCTTGA,1.04 ± 0.052
11,ACAGTTAGGG,1.02 ± 0.024
12,TCGTTTACAC,1.01 ± 0.033
13,TATAAACAGG,0.998 ± 0.023
14,TTCACCGGCA,1.079 ± 0.0089
15,GTCTTTTACG,1.005 ± 0.0013
16,CGGAGTTGAA,1.07 ± 0.027
17,GGTTTTTGGA,0.981 ± 0.038
18,GGGGTGAC,1.0027 ± 0.00099
19,ATCGCGGTGC,1.64 ± 0.33
20,TTATAGTATT,0.957 ± 0.044
21,ATTGGGTCGT,0.992 ± 0.021
22,TGGTTTGGAA,0.998 ± 0.05
23,GGGGGGACGC,1.02 ± 0.013

row,Sequence,switch fluorescence ratio
1,CTTTTAACTC,1.01 ± 0.024
2,GCGCTAAGTT,0.984 ± 0.015
3,CGCTGGCCTT,0.975 ± 0.016
4,TGCTGGCCTG,1.01 ± 0.019
5,TGTGGAAGTT,0.9686 ± 0.0021
6,TTTGTGGATG,0.985 ± 0.03
7,AGTTTGGGTC,0.984 ± 0.057
8,GAGGGAATTT,1.01 ± 0.021
9,TTGGTATAGC,1.003 ± 0.01
10,TCGGGTTTGT,1.01 ± 0.011
11,ATTCACCGGA,1.031 ± 0.0044
12,CGATGGGGGA,1.02 ± 0.018
13,ATCGAAAAAC,1.01 ± 0.05
14,TTTTGGCGCA,1.01 ± 0.0046
15,TCGATCCCGA,1.017 ± 0.0072
16,TTGGGTGGGG,1 ± 0.049
17,GTCGGGGGTT,1.02 ± 0.049
18,GAATTCTTGA,0.9532 ± 0.0043
19,AGTTATTGAG,0.9991 ± 0.0043
20,GATATAGGTT,1 ± 0.02
21,GTAACTTTTT,1.056 ± 0.0034
22,TTAATGTGGG,0.995 ± 0.014
23,TGGTTACGGG,0.993 ± 0.012

row,Sequence,switch fluorescence ratio
1,AAAACTTCTT,1 ± 0.013
2,GTGTTATGAT,0.9574 ± 0.0068
3,ATTTGCTTTA,1.02 ± 0.012
4,ACTAAAGGGG,1.04 ± 0.021
5,AAGTTGATTG,1.023 ± 0.0031
6,GTGACTTAGT,1.03 ± 0.02
7,GTTGGAACAG,0.969 ± 0.043
8,TGGGGATCGA,1.04 ± 0.011
9,TTTTTGAGC,1.011 ± 0.0086
10,CTTATTAGGG,0.986 ± 0.021
11,AACGTTTTCC,1.23 ± 0.1
12,TTGGTTTGGC,1.01 ± 0.019
13,ATTGACGTAT,1.07 ± 0.13
14,TATAAACTTT,1.01 ± 0.054
15,GAGTTGGGAT,1.01 ± 0.011
16,AACAATTATT,1.04 ± 0.048
17,CATGGCCTGA,0.977 ± 0.018
18,CGCAGGGTTC,1.13 ± 0.12
19,TGAGGTGTAT,0.98719 ± 0.00023
20,ATGGTGAGCG,0.978 ± 0.017
21,ATTAATGTGA,1 ± 0.031
22,AAGGGAGCTG,1.02 ± 0.15
23,ATTTAGTGGT,1 ± 0.028

row,Sequence,switch fluorescence ratio
1,ACGGGGGGCT,0.995 ± 0.057
2,ATGCTATTGT,1.03 ± 0.046
3,AGGGAAGGAT,1.01 ± 0.047
4,GATTATTCTT,1.03 ± 0.035
5,TTGAAATTTT,1.001 ± 0.0077
6,ACAGCTGGCG,1.05 ± 0.024
7,AAGGGCCCGT,1.02 ± 0.022
8,CGGTACATTG,1.004 ± 0.0053
9,TAGCATGTTC,1.09 ± 0.049
10,TTGTTGGGAT,0.996 ± 0.028
11,GCTAAAGAAA,0.974 ± 0.028
12,TGCTTAGTC,1.01 ± 0.022
13,TGGGGCTCTA,1.03 ± 0.033
14,GTGTGGGAGT,0.9963 ± 0.0016
15,GAATATCAAG,0.9871 ± 0.0064
16,CCATATTTAG,0.996 ± 0.028
17,GAGGGGAAGC,0.985 ± 0.046
18,TATAGTGGGG,1.043 ± 0.0078
19,TTTGCGGAAA,1.01 ± 0.023
